Patent publication CN116507641A (XINSHI BIOPHARMACEUTICAL CO LTD, dated 2023)

Assays:
[1] = molecular target: T1, 小鼠结合素-4 (mouse Nectin-4) (mouse, UniProt Q8R007 31-508); assay: flow cytometry on transiently transfected 293T cells; + = EC50 25nM to 133nM
T1 construct: Transiently expressed on 293T cells; also called NP_082169.2
T1 sequence: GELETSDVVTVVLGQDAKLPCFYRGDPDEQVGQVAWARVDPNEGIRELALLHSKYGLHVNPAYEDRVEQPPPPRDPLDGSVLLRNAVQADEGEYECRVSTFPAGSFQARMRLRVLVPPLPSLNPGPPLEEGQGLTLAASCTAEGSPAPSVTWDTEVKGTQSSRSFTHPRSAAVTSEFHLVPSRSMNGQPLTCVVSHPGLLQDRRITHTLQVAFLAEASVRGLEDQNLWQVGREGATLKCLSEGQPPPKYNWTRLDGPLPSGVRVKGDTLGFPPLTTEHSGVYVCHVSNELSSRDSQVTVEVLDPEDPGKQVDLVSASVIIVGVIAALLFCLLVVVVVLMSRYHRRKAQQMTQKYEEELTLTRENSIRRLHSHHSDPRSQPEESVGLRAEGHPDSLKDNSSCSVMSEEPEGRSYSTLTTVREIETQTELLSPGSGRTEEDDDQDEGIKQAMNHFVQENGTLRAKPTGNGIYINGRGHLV

[2] = molecular target: T2, 大鼠结合素-4 (rat Nectin-4) (rat, UniProt Q8R007 31-508 (mouse entry)); assay: flow cytometry on transiently transfected 293T cells; +++ = EC50 below 5nM
T2 construct: Transiently expressed on 293T cells; also called NP_001102546.1
T2 chain: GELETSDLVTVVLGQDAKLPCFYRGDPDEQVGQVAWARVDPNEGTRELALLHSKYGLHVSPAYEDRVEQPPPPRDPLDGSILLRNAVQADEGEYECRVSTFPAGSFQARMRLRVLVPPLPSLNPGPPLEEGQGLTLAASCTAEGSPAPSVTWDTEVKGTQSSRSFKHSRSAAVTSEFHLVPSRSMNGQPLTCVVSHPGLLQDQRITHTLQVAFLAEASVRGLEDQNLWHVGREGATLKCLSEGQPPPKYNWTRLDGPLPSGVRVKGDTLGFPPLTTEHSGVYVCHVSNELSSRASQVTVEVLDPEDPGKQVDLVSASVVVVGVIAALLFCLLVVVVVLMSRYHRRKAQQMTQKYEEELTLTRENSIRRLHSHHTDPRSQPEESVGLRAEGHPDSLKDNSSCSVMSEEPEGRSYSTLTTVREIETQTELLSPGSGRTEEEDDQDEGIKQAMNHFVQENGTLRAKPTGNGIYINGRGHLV

[3] = molecular target: T3, 食蟹猴结合素-4 (cynomolgus Nectin-4) (cynomolgus monkey, UniProt Q96NY8 32-510 (human entry)); assay: as above
T3 construct: Transiently expressed on 293T cells; also called XP_005541277.1
T3 chain: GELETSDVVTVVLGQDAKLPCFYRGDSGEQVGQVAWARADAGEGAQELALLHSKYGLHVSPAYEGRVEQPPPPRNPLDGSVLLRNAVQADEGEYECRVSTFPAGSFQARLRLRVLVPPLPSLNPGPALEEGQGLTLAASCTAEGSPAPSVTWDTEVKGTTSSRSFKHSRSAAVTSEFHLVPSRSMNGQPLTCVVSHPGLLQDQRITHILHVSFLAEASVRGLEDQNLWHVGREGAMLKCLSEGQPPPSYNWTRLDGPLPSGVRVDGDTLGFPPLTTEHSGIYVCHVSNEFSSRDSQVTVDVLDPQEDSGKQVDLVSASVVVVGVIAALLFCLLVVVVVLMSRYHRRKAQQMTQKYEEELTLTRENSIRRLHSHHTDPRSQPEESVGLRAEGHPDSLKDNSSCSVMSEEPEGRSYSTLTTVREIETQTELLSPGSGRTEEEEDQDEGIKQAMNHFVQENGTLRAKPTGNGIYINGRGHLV

[4] = molecular target: T1, 小鼠结合素-4 (mouse Nectin-4); assay: flow cytometry on transiently transfected 293T cells; ++ = EC50 5nM to 25nM
[5] = molecular target: T4, 人结合素-2 (recombinant human Nectin-2; ACROBiosystems PV2-H52E2) (human, UniProt Q92692 32-360); assay: ELISA or Gator binding assay
T4 construct: extracellular domain
T4 sequence (looked up): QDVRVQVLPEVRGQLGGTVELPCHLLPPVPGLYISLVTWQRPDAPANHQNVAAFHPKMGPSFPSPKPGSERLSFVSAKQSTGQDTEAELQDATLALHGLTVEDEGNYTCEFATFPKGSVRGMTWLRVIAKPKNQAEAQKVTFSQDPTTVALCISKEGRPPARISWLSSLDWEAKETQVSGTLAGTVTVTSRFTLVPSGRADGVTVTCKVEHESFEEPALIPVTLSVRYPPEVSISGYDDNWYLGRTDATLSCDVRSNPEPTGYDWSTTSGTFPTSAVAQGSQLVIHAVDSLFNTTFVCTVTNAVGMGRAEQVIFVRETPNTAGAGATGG

[6] = molecular target: T5, 人结合素-4变体 ΔV结构域 (human Nectin-4 lacking amino acids 32-147) (human, UniProt Q96NY8 148-510); assay: flow cytometry on transiently transfected 293T cells
T5 construct: Transiently expressed on 293T cells; also called 缺少Ig样V型结构域的变体
T5 sequence: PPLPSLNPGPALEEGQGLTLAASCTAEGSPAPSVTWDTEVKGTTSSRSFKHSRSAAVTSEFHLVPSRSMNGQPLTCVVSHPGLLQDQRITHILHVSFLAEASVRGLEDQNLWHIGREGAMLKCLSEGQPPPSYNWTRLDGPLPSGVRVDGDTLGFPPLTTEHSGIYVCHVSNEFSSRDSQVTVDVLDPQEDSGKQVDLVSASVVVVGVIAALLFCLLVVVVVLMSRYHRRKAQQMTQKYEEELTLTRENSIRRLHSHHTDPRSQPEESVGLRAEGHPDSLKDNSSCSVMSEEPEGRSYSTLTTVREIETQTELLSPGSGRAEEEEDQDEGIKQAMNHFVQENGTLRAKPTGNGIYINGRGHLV

[7] = molecular target: T6, 人重组结合素-4蛋白 (recombinant human Nectin-4, extracellular domain) (human, UniProt Q96NY8 32-349); assay: ELISA, recombinant human Nectin-4 coated on plate
T6 construct: Protein coated on the ELISA plate; May be the same protein as the Nectin-4-His used in SPR; also called 重组结合素-4(细胞外结构域); 人结合素-4蛋白
T6 sequence: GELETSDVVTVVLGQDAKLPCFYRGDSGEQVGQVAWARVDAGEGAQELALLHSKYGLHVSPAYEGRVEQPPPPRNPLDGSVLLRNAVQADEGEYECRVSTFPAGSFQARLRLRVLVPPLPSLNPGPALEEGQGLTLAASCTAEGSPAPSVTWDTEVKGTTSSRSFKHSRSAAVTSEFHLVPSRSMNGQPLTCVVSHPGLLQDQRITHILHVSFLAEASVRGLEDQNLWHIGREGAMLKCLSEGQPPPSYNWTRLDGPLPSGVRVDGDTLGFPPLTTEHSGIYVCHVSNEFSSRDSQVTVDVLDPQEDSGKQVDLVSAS

[8] = molecular target: T7, 重组人结合素4-His蛋白 (recombinant human Nectin-4-His) (human, UniProt Q96NY8 32-349); assay: SPR (BIAcore 3000), antibody captured by anti-human IgG on CM5, Nectin-4-His as analyte, 1:1 binding with mass transfer
T7 construct: Analyte in SPR; also called 人重组结合素-4; not shown: His tag
T7 sequence: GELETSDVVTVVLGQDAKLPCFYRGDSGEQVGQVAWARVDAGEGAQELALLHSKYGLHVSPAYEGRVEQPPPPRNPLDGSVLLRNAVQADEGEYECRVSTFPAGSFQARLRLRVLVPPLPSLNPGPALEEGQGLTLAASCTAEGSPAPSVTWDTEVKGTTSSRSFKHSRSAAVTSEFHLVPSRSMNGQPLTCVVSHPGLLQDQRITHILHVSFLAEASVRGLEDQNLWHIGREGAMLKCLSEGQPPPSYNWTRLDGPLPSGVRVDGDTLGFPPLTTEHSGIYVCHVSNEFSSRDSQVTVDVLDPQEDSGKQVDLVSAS

[9] = molecular target: T2, 大鼠结合素-4 (rat Nectin-4); assay: flow cytometry on transiently transfected 293T cells; ++ = EC50 5nM to 25nM
[10] = molecular target: T2, 大鼠结合素-4 (rat Nectin-4); assay: flow cytometry on transiently transfected 293T cells; + = EC50 25nM to 133nM

Binder	EC50 [1] [nM]	EC50 [2] [nM]	EC50 [3] [nM]	EC50 [4] [nM]	binding result [5]	binding result [6]	EC50 [7] [nM]	Kd [8] [nM]	EC50 [9] [nM]	EC50 [10] [nM]
N4_mAb 5 (antibody, V domains shown) VH: EVQLQQSGPDLVKPGASVKISCKASGYSFTGHYMHWVKQSHGKSLEWIGRVNPNNGGSSYNQKFKDKAILTVDKSSTTAYMELRSLTSEDSAVYYCARDPLGGSYGFAYWGQGTLVTVSA VL: DIVLTQSPASLAVSLGQRATISCRASQSVTTSSYSYMHWYQQKPGQPPKLLIKYASNLESGVPARFSGSGSGTDFTLNIHPVEEEDTATYYCQHSWEIPYTFGGGTKLEMK	25 to 133	< 5	< 5							
N4_mAb 6 (antibody, V domains shown, Murine variable regions) VH: QVQLQQSGPELVKPGASVRISCKASGYTFTTYYIHWVKQRPGQGLEWIGWIYPGNVNTKYTENFKDKATLTADKSSSTAYMQLSSLTSEDSAVYFCARGLYYFDFWGQGTTLTVSS VL: SIVMTQTPKFLLVSAGDRVTITCKASQSVNNDVAWYQQKPGQSPKLLIYYASNRDTGVPDRFTGSGFGTDFTFTISSVQAEDLAVYFCQQDYSSPYTFGGGTKLEIK		< 5	< 5	5 to 25	no binding	no binding (tested: 最高测试的抗体浓度(133nM))	0.03	0.392		
N4_mAb 8 (antibody, V domains shown, Murine variable regions) VH: QVQLQQSGPVLVKPGASVRISCKASGYTFTSYYIHWVKQRPGQGLEWIGWIYPGNVNTKYNENFRDKATLTADKSSSTSYMQLSSLTSEDSAVYFCARGIYYFDYWGQGTTLTVSS VL: IIVMTQTPKFLLVSAGDRVTITCKASQSVNNDVAWYQEKPGQSPKLLIYYASNRDTGVPDRFTGSGYGTDFTFTISTVQAEDLAVYFCHQDYSSPFTFGSGTKLEIK		< 5	< 5	5 to 25	no binding	no binding (tested: 最高测试的抗体浓度(133nM))	0.14	0.375		
N4_mAb 7 (antibody, V domains shown, Murine variable regions) VH: QVQLQQSGPELVKPGASVKMSCKASGYTFTTYYIHWVKQRPGQGLEWIGWIYPGNAGIKSNEKFKGKTTLTADKSSSTAYMLLSSLTSEDSAIYFCARGVYFFDYWGQGTTLTVSS VL: SIVMTQTPKFLLVSAGDRVTITCKASQSVNNDVSWFQQKPGQSPKLLIYYASNRYTGVPDRFSGSGYGTDFTFTITTVQAEDLAVYFCQQDYSSPYTFGGGTKLEIK		< 5	< 5	5 to 25	no binding	no binding (tested: 最高测试的抗体浓度(133nM))	0.04	0.39		
N4_mAb 2 (antibody, V domains shown) VH: QVQLKQSGPNLVQPSQSLSITCTVSGFSLTTYGAHWVRQSPGKGLEWLGVIWRGGSTDYNAAFMSRLSITKDNSKSQVFFKMNSLQADDTAIYYCAKIGYDGYAMDNWGQGTSVTVSS VL: DFQVTQSPASLSASVGETVTITCRTSENIHNYLAWYQQKQGKSPQLLVYNAKTLADGVPSRFSGSGSGTQYSLKINSLQPEDFGTYYCQHFWSSPWTFGGGTKLEIK			< 5	5 to 25					5 to 25	
N4_mAb 4 (antibody, V domains shown) VH: DVQLQESGPDLVKPSQSLSLTCTVTGYSITSAYNWHWIRQFPGNKLEWMGYIHYSGRTNYNPSLKSRISITRDTSKNQFFLQLNSLTTEDTATYYCARWITTATGWYLDVWGAGTTVTVSS VL: not shown			< 5							25 to 133
N4_mAb 3 (antibody, V domains shown) VH: EVQLQQSGAELVKPGASVKLSCTVSGFNIKDTYMHWVKQRPEQGLEWIGRIDPANGNTKYDPKFQGKATIIADKASNTAYLQLSSLTSEDAAVYYCAHYYGSSYFAMDCWGQGTSVTVSS VL: DIVMTQSHKFMSTSVGDRVSITCKASQDVSTAVAWYQQKPGQSPKLLIYWASTRHTGVPDRFTGSGSGTDYTLTISSVQTEDLALYYCQQHYSTPLTFGAGTKLELK			< 5							25 to 133
N4_mAb 1 (antibody, V domains shown) VH: QVQLKQSGPGLVQPSQSLSITCTVSGFSLTNYGVNWVRQPPGKGLEWLGVIWSGGSTDYNAAFISRLSISKDISKSQVFFKMNSLQADDTAKYYCAREGYDGYAMDYWGQGTSVTVSS VL: DIQMTQSPASLSVSVGETVTITCRASENIFSSLAWYQQKQGKSPQLLVYGATNLADGVPSRFSGSGSGTQYSLKINSLQSEDFGTYWCQHFWGNPWTFGGGTKLEIK			< 5							
